Source: article PMC8068094

Tests used:
[1] = molecular target: Munc13L with C-terminal Halo tag (Munc13-1 residues 529-1735, C1-C2B-MUN-C2C domains, residues 1408-1452 replaced by EF) (UniProt Q62768); experiment: two-colour TIRF co-localisation on a supported lipid bilayer
[2] = molecular target: Munc13L with C-terminal Halo tag (Munc13-1 residues 529-1735, C1-C2B-MUN-C2C domains, residues 1408-1452 replaced by EF) (UniProt Q62768); experiment: two-colour step-bleaching of co-clusters on a supported lipid bilayer

Substance: single-cysteine (S28C) version of SNAP25^WT labeled with AlexaFluor555 (from UniProt P60879 1-206) (natural protein)
- Manders' coefficient (SNAP25:Munc13L) at 50 nM Munc13L [1]: 0.2
- Manders' coefficient (SNAP25:Munc13L) at 1 μM Munc13L [1]: 0.6
- Manders' coefficient at 1 μM Munc13L [1]: 0.7
- stoichiometry N (mole SNAP25/mole Munc13L) [2]: 0.8
